Test [1] deals with T1, TGFβ3 (R&D Systems) (Homo sapiens (Human), UniProt P10600 301-412, Active TGFβ3 is a disulfide-linked homodimer of this chain; one copy is given.).
T1 construct: also called TGFB3
T1 sequence: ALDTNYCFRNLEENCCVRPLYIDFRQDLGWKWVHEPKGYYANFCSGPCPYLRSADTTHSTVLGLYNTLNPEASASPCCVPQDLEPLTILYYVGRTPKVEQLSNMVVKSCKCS
As to the kind of experiment: SPR full titration.

In test [2] the target is T2, TGFβ1 (R&D Systems).
T2 construct: also called TGFB1
As to the kind of experiment: SPR full titration.

Test [3] concerns the target T2, TGFβ1 (R&D Systems). As to the kind of experiment: cell-based or functional assay.
The target in test [4] is T1, TGFβ3 (R&D Systems). As to the kind of experiment: cell-based or functional assay.
Test [5] concerns the target T2, TGFβ1 (R&D Systems). Description: cell-based or functional assay. The source holds these as a separate data set.
Test [6] has as its target T1, TGFβ3 (R&D Systems). As to the kind of experiment: SPR, TGFβ on chip. An excerpt: (§1) To avoid affinity differences associated with differential surface preparation that can occur when immobilizing antibodies to surfaces, TGFβ1, TGFβ2, and TGFβ3 (R&D Systems) were directly conjugated to the individual surface. Immobilization was obtained by amine coupling […] using N-hydroxysuccinimide (NHS)/1-Ethyl-3-(3-dimethylaminopropyl) carbodiimide (EDC) chemistry. Chips were quenched with ethanolamine and the affinity with which all candidate mAbs bound to the immobilized TGFβ was evaluated. All curves were fit to a 1:1 model. Affinities <10⁻¹¹ are below the lower limit of quantitation of detection for the instrument.

Test [7] deals with T3, TGFβ2 (R&D Systems).
T3 construct: also called TGFB2
T3 sequence (P61812 303-414, species assumed, looked up): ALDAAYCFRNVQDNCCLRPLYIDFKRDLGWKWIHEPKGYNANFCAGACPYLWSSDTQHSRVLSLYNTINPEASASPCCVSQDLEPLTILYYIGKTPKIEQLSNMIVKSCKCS
As to the kind of experiment: SPR, TGFβ on chip.
From the text: as §1

Test [8] has as its target T2, TGFβ1 (R&D Systems). As to the kind of experiment: SPR, TGFβ on chip.
From the text: as §1

Test [9] addresses T1, TGFβ3 (R&D Systems). Description: cell-based or functional assay. The source holds these as a separate data set.
The target in test [10] is T3, TGFβ2 (R&D Systems). Description: cell-based or functional assay.
Test [11] concerns the target T2, TGFβ1 (R&D Systems). Description: cell-based or functional assay. The source holds these as a separate data set.
Test [12] deals with T2, TGFβ1 (R&D Systems). Description: cell-based or functional assay. This is another data set of the same source.
Test [13] has as its target canine TGFβ1 (canine, UniProt P54831 279-390, limits assumed). Description: SPR, TGFβ on chip.
From the text: as §1

For test [14], the target named is T4, canine TGFβ3 (canine, UniProt A0A8I3S1P1 346-457).
T4 sequence: T1 sequence
Description: SPR, TGFβ on chip.
From the text: as §1

The target in test [15] is T5, canine TGFβ2 (canine, UniProt A0A8I3PZZ6 331-442).
T5 sequence: T3 sequence (P61812 303-414, species assumed, looked up)
As to the kind of experiment: SPR, TGFβ on chip.
From the text: as §1

The target of test [16] is T1, TGFβ3 (R&D Systems). As to the kind of experiment: SPR full titration. This is another data set of the same source.
The target of test [17] is T3, TGFβ2 (R&D Systems). As to the kind of experiment: SPR full titration.
The target in test [18] is T2, TGFβ1 (R&D Systems). As to the kind of experiment: SPR full titration. The source holds these as a separate data set.
Test [19] has as its target T1, TGFβ3 (R&D Systems). Description: cell-based or functional assay. This is another data set of the same source.
Test [20] deals with T3, TGFβ2 (R&D Systems). As to the kind of experiment: cell-based or functional assay. This is another data set of the same source.
Test [21] addresses T2, TGFβ1 (R&D Systems). Description: cell-based or functional assay. The source holds these as a separate data set.
The target in test [22] is T2, TGFβ1 (R&D Systems). Description: cell-based or functional assay. This is another data set of the same source.
The target of test [23] is T1, TGFβ3 (R&D Systems). As to the kind of experiment: SPR.

Numbering of substitutions follows the chain as printed. Where two headings read alike, the source gives them in different places.

T2 sequence (P01137 279-390): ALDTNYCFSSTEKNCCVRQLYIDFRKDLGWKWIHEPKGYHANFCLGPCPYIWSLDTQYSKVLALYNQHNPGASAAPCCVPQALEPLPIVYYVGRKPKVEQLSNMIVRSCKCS
Chain of canine TGFβ1 (P54831 279-390 limits assumed): as the sequence (P01137 279-390) above

B1: Can-SL501_VH3/Can-SL501-VL1 (antibody, V domains shown)
VH: EVQLVESGGDLVKPGGSLRLSCVASGFTFSSYGMHWVRQAPGKGLQWVAVISYDGSIKYYADAVKGRFTISRDNAKNTLYLQMNSLRAEDTAVYYCARTGEYSGYDTDPQYSWGQGTTVTVSS
VL: EIVMTQSPASLSLSQEEKVTITCRASQGIGDDLGWYQQKPGQAPKLLIYGTSTLQSGVPSRFSGSGSGTDFSFTISSLEPEDVAVYYCLQDSNYPLTFGAGTK
notes: caninized IgG; constant regions not restated; also called ZTS-501
B1: the binding result in [1] is recorded as “no binding”. The same molecule showed an equilibrium dissociation constant (Kd) in test [2] of 0.0218 nM. Moreover, the “CMVIC pSmad-3, IC50” value in test [3] amounted to 4.91 nM.

B2: chi SL501 (antibody)
heavy: EVQLVESGGGVVQPGRSLRLSCAASGFTFSSYGMHWVRQAPGKELEWVAVISYDGSIKYYADSVKGRFTISRDNSKNTLYLQMNSLRAEDTAVYYCARTGEYSGYDTDPQYSWGQGTTVTVSSASTTAPSVFPLAPSCGSTSGSTVALACLVSGYFPEPVTVSWNSGSLTSGVHTFPSVLQSSGLYSLSSMVTVPSSRWPSETFTCNVAHPASKTKVDKPVPKRENGRVPRPPDCPKCPAPEAAGAPSVFIFPPKPKDTLLIARTPEVTCVVVDLDPEDPEVQISWFVDGKQMQTAKTQPREEQFNGTYRVVSVLPIGHQDWLKGKQFTCKVNNKALPSPIERTISKARGQAHQPSVYVLPPSREELSKNTVSLTCLIKDFFPPDIDVEWQSNGQQEPESKYRTTPPQLDEDGSYFLYSKLSVDKSRWQRGDTFICAVMHEALHNHYTQESLSHSPGK
light: EIVLTQSPSSLSASVGDRVTITCRASQGIGDDLGWYQQKPGKAPILLIYGTSTLQSGVPSRFSGSGSGTDFTLTINSLQPEDFATYYCLQDSNYPLTFGGGTKRNDAQPAVYLFQPSPDQLHTGSASVVCLLNSFYPKDINVKWKVDGVIQDTGIQESVTEQDKDSTYSLSSTLTMSSTEYLSHELYSCEITHKSLPSTLIKSFQRSEC
notes: also called Chimera-SL501-VH/Chimera-SL501-VL
Consider B2, for which the binding result in test [1] is on record as “no binding”. In test [2], this molecule registered a Kd of 0.472 nM.

B3: chi04H09 (mouse-dog) (antibody, V domains shown)
VH: QVQLQQSGAELVKPGASVKISCKASGYAFSSSWMNWVKQRPGKGLEWIGQIYPGDGDTNYNGKFKGKATLTADKSSSTAYMQLSSLTSEDSAVYFCARHYDGSTDYWGQGTTLTVSS
VL: DIQMTQSPASLSVSVGETVTITCRASENIYSNLAWYQQKQGKSPQLLVYAATNLADGVPSRFSGSGSGTQYSLKINSLQSEDFGSYYCQHFWGTPYTFGGGTKLEIKR
notes: also called mouse:canine 04H09 chimera
With B3, the “CMVIC pSmad-3, IC50” value in [4] came out at 66.5 nM; in [5], 3.5 nM. In addition, the Kd in [6] is 4.64 nM; in test [7], 27.7 nM; in [8], 4.01 nM.

B4: felHclb 1-1WMN (antibody, V domains shown)
VH: QVLLVQSGAEVRTPGASVKIFCKASGYIFITYWMNWVRQSPAQGLEWMGSIFPASGSTSYAQKFQGRLTLTADTSTNTAYMELSSLRSADTAMYYCARGDGNYALDAMDYWGQGTSVTVSS
VL: EIQMTQSPSSLSASPGDRVTITCRASESVDSYGNSFMHWYQQKPGKVPKLLIYLASNLESGVPSRFSGSGSGTDFTLTISSLEPEDAATYYCQQNNEDPLTFGAGT
In the case of B4, the “CMVIC pSmad-3, IC50” value in [9] is 10.1 nM; in test [10] it was 121 nM; in test [11] it was 69.7 nM.

B5: felHclb 1-1xWMN (antibody, V domains shown)
VH: B4 VH with S50Q, S59N, A61N, Q62E, K63M, Q65E
VL: B4 VL
For B5, the “CMVIC pSmad-3, IC50” value turned out to be 0.53 nM in test [9], 1.99 nM in test [10] and 0.35 nM in [11].

B6: Can04H09 VH1/VL4 (antibody, V domains shown)
VH: EVQLVQSGAEVKKPGASVKVSCKTSGYTFISSWMNWVRQAPGAGLDWMGQIYPGDGDTNYNGKFKGRVTLTADTSTSTAYMELSSLRAGDIAVYYCARHYDGSTDYWGQGTLVTVSS
VL: EIVMTQSPASLSLSQGEKVTITCRASENIYSNLAWYQQRPGQAPKLLIYAATNLADGVPSRFSGSGSGTDFSLTISSLEPEDVAVYYCQHFWGTPYTFGQGTK
Regarding B6, the “CMVIC pSmad-3, IC50” value in [4] came to 136 nM; in test [5] it was 0.88 nM. Besides, the “IC50 (read off the curve), inhibition of TGFβ1-induced SMAD3 signalling [panel TGFβ1]” value in [12] was around 0.2 µg/mL. Also, the Kd in test [13] is 2.18 nM; in test [14], 4.78 nM; in test [15], 29.7 nM.

B7: mHcLb (antibody, V domains shown)
VH: QVQLEESGPELVRPGASVKLSCKASGYIFITYWMNWVKQRPGQGLEWIGQIFPASGSTNYNEMFEGKATLTVDTSSSTAYMQLSSLTSEDSAVYYCARGDGNYALDAMDYWGQGT
VL: DIVLTQTPASLAVSLGQRATISCRASESVDSYGNSFMHWYQQKSGQPPKLLIYLASNLESGVPARFSGSGSRTDFTLTIDPVEADDAATYYCQQNNEDPLTFGAGTK
notes: murine antibody; also called 1D11; mHcLb (murine)
On to B7, for which the figures for the Kd in test [16], in test [17] and in test [18] were 0.223 nM, 0.586 nM and 5.05 nM, respectively. Further, the entries for the “pSmad-3, IC50” value in [19], in test [20] and in [21] were 1.11 nM, 11 nM and 1.52 nM, respectively.

B8: fel-TGFβ1_hetero-chimera-1 (antibody)
heavy: DVQLVESGGDLVKPGGSLRLTCVASGFTFSSYGMHWVRQAPGKELEWVAVISYDGSIKYYADAVKGRFTISRDNAKNTLYLQMNSLKTEDTATYYCARTGEYSGYDTDPQYSWGQGTTVTVSSASTTAPSVFPLAPSCGTTSGATVALACLVLGYFPEPVTVSWNSGALTSGVHTFPAVLQASGLYSLSSMVTVPSSRWLSDTFTCNVAHPPSNTKVDKTVRKTDHPPGPKPCDCPKCPPPEAAGAPSIFIFPPKPKDTLSISRTPEVTCLVVDLGPDDSDVQITWFVDNTQVYTAKTSPREEQFNSTYRVVSVLPILHQDWLKGKEFKCKVNSKSLPSPIERTISKAKGQPHEPQVYVLPPAQEELSRNKVSVTCLIKSFHPPDIAVEWEITGQPEPENNYRTTPPQLDSDGTYFVYSKLSVDRSHWQRGNTYTCSVSHEALHSHHTQKSLTQSPGK
light: EIVLTQSPSSLSASVGDRVTITCRASQGIGDDLGWYQQKPGKAPILLIYGTSTLQSGVPSRFSGSGSGTDFTLTINSLQPEDFATYYCLQDSNYPLTFGGGTKRSDAQPSVFLFQPSLDELHTGSASIVCILNDFYPKEVNVKWKVDGVVQNKGIQESTTEQNSKDSTYSLSSTLTMSSTEYQSHEKFSCEVTHKSLASTLVKSFQRSECQRE
B8: the “CMVIC pSmad-3, IC50” value in test [22] was 30.1 nM. Further, in test [23], the binding result was “no binding”.

B9: fel-TGFβ1_hetero-chimera-2 (antibody)
heavy: EVQLVESGGGVVQPGRSLRLSCAASGFTFSSYGMHWVRQAPGKELEWVAVISYDGSIKYYADSVKGRFTISRDNSKNTLYLQMNSLRAEDTAVYYCARTGEYSGYDTDPQYSWGQGTTVTVSSASTTAPSVFPLAPSCGTTSGATVALACLVLGYFPEPVTVSWNSGALTSGVHTFPAVLQASGLYSLSSMVTVPSSRWLSDTFTCNVAHPPSNTKVDKTVRKTDHPPGPKPCDCPKCPPPEAAGAPSIFIFPPKPKDTLSISRTPEVTCLVVDLGPDDSDVQITWFVDNTQVYTAKTSPREEQFNSTYRVVSVLPILHQDWLKGKEFKCKVNSKSLPSPIERTISKAKGQPHEPQVYVLPPAQEELSRNKVSVTCLIKSFHPPDIAVEWEITGQPEPENNYRTTPPQLDSDGTYFVYSKLSVDRSHWQRGNTYTCSVSHEALHSHHTQKSLTQSPGK
light: B8 light with V3Q, L4M, V15P, A43V, I45K, N76S, Q79E, F83A
Turning to B9, the “CMVIC pSmad-3, IC50” value in [22] is 11.9 nM. For the same molecule, in test [23], the binding result is reported as “no binding”.
